Experimental data reported in IntAct's records for PubMed 16286920.

B1: Galectin-9 (Mus musculus), O08573-2 (parent)
chain: MALFSAQSPYINPIIPFTGPIQGGLQEGLQVTLQGTTKSFAQRFVVNFQNSFNGNDIAFHFNPRFEEGGYVVCNTKQNGQWGPEERKMQMPFQKGMPFELCFLVQRSEFKVMVNKKFFVQYQHRVPYHLVDTIAVSGCLKLSFITFQTQNFRPAHQAPMAQTTIHMVHSTPGQMFSTPGIPPVVYPTPAYTIPFYTPIPNGLYPSKSIMISGNVLPDATRFHINLRCGGDIAFHLNPRFNENAVVRNTQINNSWGQEERSLLGRMPFSRGQSFSVWIICEGHCFKVAVNGQHMCEYYHRLKNLQDINTLEVAGDIQLTHVQT

Variants of: B1
Settings: with havr2_mouse Havcr2, Q8VIM0
havr2_mouse Havcr2, Q8VIM0, sequence (Q8VIM0 whole entry): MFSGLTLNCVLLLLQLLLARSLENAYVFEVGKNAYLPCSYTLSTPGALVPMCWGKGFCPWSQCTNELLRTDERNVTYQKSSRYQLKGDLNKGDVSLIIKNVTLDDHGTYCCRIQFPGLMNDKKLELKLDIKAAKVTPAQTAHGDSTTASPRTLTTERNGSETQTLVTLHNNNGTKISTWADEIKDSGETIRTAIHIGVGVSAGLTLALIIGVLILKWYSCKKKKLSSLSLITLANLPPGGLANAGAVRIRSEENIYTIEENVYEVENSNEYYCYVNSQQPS

Variant	effect of a mutation on the interaction
R238A	decreasing interaction strength
R64A;R238A	disrupting interaction strength
R64A	decreasing interaction strength
